Experiment [1] addresses Recombinant Human TNF-α/TNFSF1A (human, UniProt P01375 77-233). The experiment in a line: cell-based or functional assay.
The target of a further experiment is Recombinant Human β-NGF (human, UniProt P01138 122-241). The experiment in a line: cell-based or functional assay.

Residue numbers refer to the chain shown, from its start.

Sequence of Recombinant Human β-NGF (P01138 122-241 limits assumed): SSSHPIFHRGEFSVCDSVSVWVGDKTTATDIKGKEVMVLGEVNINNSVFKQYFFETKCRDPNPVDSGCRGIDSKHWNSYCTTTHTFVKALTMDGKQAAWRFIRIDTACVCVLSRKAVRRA
Sequence of Recombinant Human TNF-α/TNFSF1A (P01375 77-233 limits assumed): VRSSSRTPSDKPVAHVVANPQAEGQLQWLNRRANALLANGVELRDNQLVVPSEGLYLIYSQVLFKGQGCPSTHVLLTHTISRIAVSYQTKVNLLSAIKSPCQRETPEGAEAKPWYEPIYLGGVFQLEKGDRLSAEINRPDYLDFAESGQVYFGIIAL

B1: DVD2763 (bispecific antibody, IgG1)
VH: EVQLVESGGGLVQPGGSLRLSCAASGFTFSNYGVEWVRQAPGKGLEWVSGIWADGSTHYADTVKSRFTISRDNSKNTLYLQMNSLRAEDTAVYYCAREWQHGPVAYWGQGTLVTVSSGGGGSGGGGSEVQLVESGGGLVQPGGSLRLSCAASGFSLTNNNVNWVRQAPGKGLEWVGGVWAGGATDYNSALKSRFTISRDNSKNTAYLQMNSLRAEDTAVYYCARDGGYSSSTLYAMDAWGQGTLVTVSS
VL: DIQMTQSPSSLSASVGDRVTITCKASQLVSSAVAWYQQKPGKAPKLLIYWASTLHTGVPSRFSGSGSGTDFTLTISSLQPEDFATYYCQQHYRTPFTFGQGTKLEIKRGGSGGGGSGDIQMTQSPSSLSASVGDRVTITCRASEDIYNALAWYQQKPGKAPKLLIYNTDTLHTGVPSRFSGSGSGTDYTLTISSLQPEDFATYFCQHYFHYPRTFGQGTKVEIKR
Turning to B1, the “N-Terminal VD huTNFα Neutralization Assay IC50” value in experiment [1] is 4 pM. The “C-Terminal VD NGF Neutralization Assay IC50” value in the experiment with Recombinant Human β-NGF came to 871 pM.

B2: DVD2721 (bispecific antibody, IgG1)
VH: EVQLVESGGGLVQPGGSLRLSCAASGFSLTNNNVNWVRQAPGKGLEWVGGVWAGGATDYNSALKSRFTISRDNSKNTAYLQMNSLRAEDTAVYYCARDGGYSSSTLYAMDAWGQGTLVTVSSASTKGPEVQLVESGGGLVQPGGSLRLSCAASGFTFSNYGVTWVRQAPGKGLEWVSMIWADGSTHYASSVKGRFTISRDNSKNTLYLQMNSLRAEDTAVYYCAREWQHGPVAYWGQGTLVTVSS
VL: DIQMTQSPSSLSASVGDRVTITCRASEDIYNALAWYQQKPGKAPKLLIYNTDTLHTGVPSRFSGSGSGTDYTLTISSLQPEDFATYFCQHYFHYPRTFGQGTKVEIKRTVAAPSVFIFPPDIQMTQSPSSLSASVGDRVTITCRASQLVSSAVAWYQQKPGKAPKLLIYWASARHTGVPSRFSGSGSGTDFTLTISSLQPEDFATYYCQQHYKTPFTFGQGTKLEIKR
Take B2: the “C-Terminal VD huTNFα Neutralization Assay IC50” value in experiment [1] is 29 pM. Moreover, the “N-Terminal VD NGF Neutralization Assay IC50” value in the experiment with Recombinant Human β-NGF was 41 pM.

B3: DVD2769 (bispecific antibody, IgG1)
VH: B2 VH with T163E, M178G, S189D, S190T, G193S
VL: DIQMTQSPSSLSASVGDRVTITCRASEDIYNALAWYQQKPGKAPKLLIYNTDTLHTGVPSRFSGSGSGTDYTLTISSLQPEDFATYFCQHYFHYPRTFGQGTKVEIKRTVAAPDIQMTQSPSSLSASVGDRVTITCKASQLVSSAVAWYQQKPGKAPKLLIYWASTLHTGVPSRFSGSGSGTDFTLTISSLQPEDFATYYCQQHYRTPFTFGQGTKLEIKR
Turning to B3, in experiment [1], the “C-Terminal VD huTNFα Neutralization Assay IC50” value was 222 pM. In addition, the “N-Terminal VD NGF Neutralization Assay IC50” value with Recombinant Human β-NGF stood at 1 pM.

B4: DVD2771 (bispecific antibody, IgG1)
VH: B2 VH with T163E, M178G, S189D, S190T, G193S
VL: B2 VL with R144K, A173T, R174L, K213R
Consider B4, for which the “C-Terminal VD huTNFα Neutralization Assay IC50” value in experiment [1] stood at 60 pM. Further, the “N-Terminal VD NGF Neutralization Assay IC50” value with Recombinant Human β-NGF came to 37 pM.

B5: DVD2722 (bispecific antibody, IgG1)
VH: EVQLVESGGGLVQPGGSLRLSCAASGFSLTNNNVNWVRQAPGKGLEWVGGVWAGGATDYNSALKSRFTISRDNSKNTAYLQMNSLRAEDTAVYYCARDGGYSSSTLYAMDAWGQGTLVTVSSASTKGPSVFPLAPEVQLVESGGGLVQPGGSLRLSCAASGFTFSNYGVTWVRQAPGKGLEWVSMIWADGSTHYASSVKGRFTISRDNSKNTLYLQMNSLRAEDTAVYYCAREWQHGPVAYWGQGTLVTVSS
VL: B3 VL with K137R, T166A, L167R, R206K
Regarding B5, the “C-Terminal VD huTNFα Neutralization Assay IC50” value in experiment [1] came to 190 pM. In the experiment with Recombinant Human β-NGF, the “N-Terminal VD NGF Neutralization Assay IC50” value came to 53 pM.

B6: DVD2772 (bispecific antibody, IgG1)
VH: B5 VH with T170E, M185G, S196D, S197T, G200S
VL: B3 VL
Regarding B6, in experiment [1], the “C-Terminal VD huTNFα Neutralization Assay IC50” value was found to be 128 pM. Besides, in the experiment with Recombinant Human β-NGF, the “N-Terminal VD NGF Neutralization Assay IC50” value worked out at 40 pM.

B7: DVD2768 (bispecific antibody, IgG1)
VH: EVQLVESGGGLVQPGGSLRLSCAASGFSLTNNNVNWVRQAPGKGLEWVGGVWAGGATDYNSALKSRFTISRDNSKNTAYLQMNSLRAEDTAVYYCARDGGYSSSTLYAMDAWGQGTLVTVSSGGGGSGGGGSEVQLVESGGGLVQPGGSLRLSCAASGFTFSNYGVEWVRQAPGKGLEWVSGIWADGSTHYADTVKSRFTISRDNSKNTLYLQMNSLRAEDTAVYYCAREWQHGPVAYWGQGTLVTVSS
VL: DIQMTQSPSSLSASVGDRVTITCRASEDIYNALAWYQQKPGKAPKLLIYNTDTLHTGVPSRFSGSGSGTDYTLTISSLQPEDFATYFCQHYFHYPRTFGQGTKVEIKRGGSGGGGSGDIQMTQSPSSLSASVGDRVTITCKASQLVSSAVAWYQQKPGKAPKLLIYWASTLHTGVPSRFSGSGSGTDFTLTISSLQPEDFATYYCQQHYRTPFTFGQGTKLEIKR
For B7, the “C-Terminal VD huTNFα Neutralization Assay IC50” value in experiment [1] stood at 189 pM. The “N-Terminal VD NGF Neutralization Assay IC50” value with Recombinant Human β-NGF is 3 pM.

B8: DVD2814 (bispecific antibody, IgG1)
VH: EVQLVQSGAEVKKPGASVKVSCKASGYTFANYGIIWVRQAPGQGLEWMGWINTYTGKPTYAQKFQGRVTMTTDTSTSTAYMELSSLRSEDTAVYYCARKLFTTMDVTDNAMDYWGQGTTVTVSSASTKGPEVQLVESGGGLVQPGGSLRLSCAASGFSLTNNNVNWVRQAPGKGLEWVGGVWAGGATDYNSALKSRFTISRDNSKNTAYLQMNSLRAEDTAVYYCARDGGYSSSTLYAMDAWGQGTLVTVSS
VL: DIQMTQSPSSLSASVGDRVTITCRASQDISQYLNWYQQKPGKAPKLLIYYTSRLQSGVPSRFSGSGSGTDFTLTISSLQPEDFATYFCQQGNTWPPTFGQGTKLEIKRTVAAPDIQMTQSPSSLSASVGDRVTITCRASEDIYNALAWYQQKPGKAPKLLIYNTDTLHTGVPSRFSGSGSGTDYTLTISSLQPEDFATYFCQHYFHYPRTFGQGTKVEIKR
For B8, the “N-Terminal VD huTNFα Neutralization Assay IC50” value in experiment [1] came to 12 pM. For the same molecule, the “C-Terminal VD NGF Neutralization Assay IC50” value in the experiment with Recombinant Human β-NGF is 19 pM.

B9: DVD2816 (bispecific antibody, IgG1)
VH: B8 VH
VL: DIQMTQSPSSLSASVGDRVTITCRASQDISQYLNWYQQKPGKAPKLLIYYTSRLQSGVPSRFSGSGSGTDFTLTISSLQPEDFATYFCQQGNTWPPTFGQGTKLEIKRTVAAPSVFIFPPDIQMTQSPSSLSASVGDRVTITCRASEDIYNALAWYQQKPGKAPKLLIYNTDTLHTGVPSRFSGSGSGTDYTLTISSLQPEDFATYFCQHYFHYPRTFGQGTKVEIKR
As for B9, in experiment [1], the “N-Terminal VD huTNFα Neutralization Assay IC50” value was 9 pM. In addition, the “C-Terminal VD NGF Neutralization Assay IC50” value with Recombinant Human β-NGF turned out to be 2890 pM.

B10: DVD2813 (bispecific antibody, IgG1)
VH: EVQLVQSGAEVKKPGASVKVSCKASGYTFANYGIIWVRQAPGQGLEWMGWINTYTGKPTYAQKFQGRVTMTTDTSTSTAYMELSSLRSEDTAVYYCARKLFTTMDVTDNAMDYWGQGTTVTVSSGGGGSGGGGSEVQLVESGGGLVQPGGSLRLSCAASGFSLTNNNVNWVRQAPGKGLEWVGGVWAGGATDYNSALKSRFTISRDNSKNTAYLQMNSLRAEDTAVYYCARDGGYSSSTLYAMDAWGQGTLVTVSS
VL: DIQMTQSPSSLSASVGDRVTITCRASQDISQYLNWYQQKPGKAPKLLIYYTSRLQSGVPSRFSGSGSGTDFTLTISSLQPEDFATYFCQQGNTWPPTFGQGTKLEIKRGGSGGGGSGDIQMTQSPSSLSASVGDRVTITCRASEDIYNALAWYQQKPGKAPKLLIYNTDTLHTGVPSRFSGSGSGTDYTLTISSLQPEDFATYFCQHYFHYPRTFGQGTKVEIKR
B10: the “N-Terminal VD huTNFα Neutralization Assay IC50” value in experiment [1] stood at 16 pM. The “C-Terminal VD NGF Neutralization Assay IC50” value with Recombinant Human β-NGF came out at 7460 pM.

B11: DVD2764 (bispecific antibody, IgG1)
VH: EVQLVESGGGLVQPGGSLRLSCAASGFTFSNYGVEWVRQAPGKGLEWVSGIWADGSTHYADTVKSRFTISRDNSKNTLYLQMNSLRAEDTAVYYCAREWQHGPVAYWGQGTLVTVSSASTKGPEVQLVESGGGLVQPGGSLRLSCAASGFSLTNNNVNWVRQAPGKGLEWVGGVWAGGATDYNSALKSRFTISRDNSKNTAYLQMNSLRAEDTAVYYCARDGGYSSSTLYAMDAWGQGTLVTVSS
VL: DIQMTQSPSSLSASVGDRVTITCKASQLVSSAVAWYQQKPGKAPKLLIYWASTLHTGVPSRFSGSGSGTDFTLTISSLQPEDFATYYCQQHYRTPFTFGQGTKLEIKRTVAAPDIQMTQSPSSLSASVGDRVTITCRASEDIYNALAWYQQKPGKAPKLLIYNTDTLHTGVPSRFSGSGSGTDYTLTISSLQPEDFATYFCQHYFHYPRTFGQGTKVEIKR
For B11, in experiment [1], the “N-Terminal VD huTNFα Neutralization Assay IC50” value is 12 pM. The “C-Terminal VD NGF Neutralization Assay IC50” value in the experiment with Recombinant Human β-NGF was determined as 4100 pM.

B12: DVD2767 (bispecific antibody, IgG1)
VH: EVQLVESGGGLVQPGGSLRLSCAASGFTFSNYGVEWVRQAPGKGLEWVSGIWADGSTHYADTVKSRFTISRDNSKNTLYLQMNSLRAEDTAVYYCAREWQHGPVAYWGQGTLVTVSSASTKGPSVFPLAPEVQLVESGGGLVQPGGSLRLSCAASGFSLTNNNVNWVRQAPGKGLEWVGGVWAGGATDYNSALKSRFTISRDNSKNTAYLQMNSLRAEDTAVYYCARDGGYSSSTLYAMDAWGQGTLVTVSS
VL: B11 VL
Take B12: in experiment [1], the “N-Terminal VD huTNFα Neutralization Assay IC50” value is 10 pM. For the same molecule, the “C-Terminal VD NGF Neutralization Assay IC50” value with Recombinant Human β-NGF was determined as 646 pM.
